How the values were obtained:
[1] = target: Strep-tagged MlaDΔTM (E. coli K-12); assay: SDS-PAGE of the purified protein
cryo-EM structure = target: the molecule itself; assay: cryo-EM structure

| stoichiometry N [1] | Molecule | stoichiometry N (cryo-EM structure) |
| --- | --- | --- |
| 6 | Strep-tagged MlaDΔTM (domain or fragment) |  |
|  | MlaF (natural protein) MEQSVANLVDMRDVSFTRGNRCIFDNISLTVPRGKITAIMGPSGIGKTTLLRLIGGQIAPDHGEILFDGENIPAMSRSRLYTVRKRMSMLFQSGALFTDMNVFDNVAYPLREHTQLPAPLLHSTVMMKLEAVGLRGAAKLMPSELSGGMARRAALARAIALEPDLIMFDEPFVGQDPITMGVLVKLISELNSALGVTCVVVSHDVPEVLSIADHAWILADKKIVAHGSAQALQANPDPRVRQFLDGIADGPVPFRYPAGDYHADLLPGS | 2 |
|  | MlaE (natural protein) MLLNALASLGHKGIKTLRTFGRAGLMLFNALVGKPEFRKHAPLLVRQLYNVGVLSMLIIVVSGVFIGMVLGLQGYLVLTTYSAETSLGMLVALSLLRELGPVVAALLFAGRAGSALTAEIGLMRATEQLSSMEMMAVDPLRRVISPRFWAGVISLPLLTVIFVAVGIWGGSLVGVSWKGIDSGFFWSAMQNAVDWRMDLVNCLIKSVVFAITVTWISLFNGYDAIPTSAGISRATTRTVVHSSLAVLGLDFVLTALMFGN | 2 |

Source: article doi:10.1101/2020.06.04.133611 (bioRxiv, 2020)
